Source: the RNAGym collection of RNA variant scans (doi:10.7554/elife.90254)

B1: OR4K15 (parent)
chain: GUUAACGGUCAUAGGCCAUGGAAACUAGGAGCACCAUUUCGCUGCCAGUGAAGAAAUGAACAAAGAAAAUCUGGGCCAGGCAGGCAUCAAAAGAAAUAGUCUUGCGCUCAACCAGAAAGUCUGUAAUCAUUUUAAGGGUA

Variants of: B1
Assay: self-cleavage, relative activity (ratio to wild type); higher = more cleavage; in vitro, sequencing; the parent is a self-cleaving ribozyme

Variant	self-cleavage
GCUAACGGUCAUAGGCCAUGGAAACUAGGAGCACCAUUUCGCUGCCAGUGAAGAAAUGAACAAAGAAAAUCUGGUCCAGGCAGGCAUCAAAAGAAAUAGUCUUGCGCUCAACCAGAAAGUCUGUAAUCAUUUUAAGGGUA [U2C G75U]	0.27
GCUAACGGUCAUAGGCCAUGGAAACUAGGAGCACCAUUUCGCUGCUAGUGAAGAAAUGAACAAAGAAAAUCUGGGCCAGGCAGGCAUCAAAAGAAAUAGUCUUGCGCUCAACCAGAAAGUCUGUAAUCAUUUUAAGGGUA [U2C C46U]	0.54
GCUAACGGUCAUAGGCCAUGGAAACUAGGAGCACCAUUUCGCUGCCAGUGAAGAAAUGAACAAAGAAAAUCUGGGCCAGGCAGGCAUCAAAAGAAAUAGUCUUGCGCUCAACCAGAAAGUCUGUAAUCAUUUUAAAGGUA [U2C G136A]	1.66
GCUAACGGUCAUAGGCCAUGGAAACUAGGAGCACCAUUUCGCUGCCAGUGAAUAAAUGAACAAAGAAAAUCUGGGCCAGGCAGGCAUCAAAAGAAAUAGUCUUGCGCUCAACCAGAAAGUCUGUAAUCAUUUUAAGGGUA [U2C G53U]	1.64
GCUAACGGUCAUAGGCCAUGGAAACUAGGAGCACCAUUUCGCUGCCAGUUAAGAAAUGAACAAAGAAAAUCUGGGCCAGGCAGGCAUCAAAAGAAAUAGUCUUGCGCUCAACCAGAAAGUCUGUAAUCAUUUUAAGGGUA [U2C G50U]	1.13
GCUAACAGUCAUAGGCCAUGGAAACUAGGAGCACCAUUUCGCUGCCAGUGAAGAAAUGAACAAAGAAAAUCUGGGCCAGGCAGGCAUCAAAAGAAAUAGUCUUGCGCUCAACCAGAAAGUCUGUAAUCAUUUUAAGGGUA [U2C G7A]	1.22
GCUAACUGUCAUAGGCCAUGGAAACUAGGAGCACCAUUUCGCUGCCAGUGAAGAAAUGAACAAAGAAAAUCUGGGCCAGGCAGGCAUCAAAAGAAAUAGUCUUGCGCUCAACCAGAAAGUCUGUAAUCAUUUUAAGGGUA [U2C G7U]	1.2
GCUAACGGUCAUAGGCCAUGGAAACUAGGAGCACCAUUUCGCUGCCAGUGAAGAAAUGAACAAAGAAAAUCUGGGCCAGGCAGGCAUCAAAAGAAAUAGUCUUGCGCUUAACCAGAAAGUCUGUAAUCAUUUUAAGGGUA [U2C C109U]	0.29
GCUAACGGUCAUAGGCCAUGGAAACUAGGAGCACCAUCUCGCUGCCAGUGAAGAAAUGAACAAAGAAAAUCUGGGCCAGGCAGGCAUCAAAAGAAAUAGUCUUGCGCUCAACCAGAAAGUCUGUAAUCAUUUUAAGGGUA [U2C U38C]	1.09
GCUAACGGUCAUAGGCCAUGGAAACUAGGAGCACCAUAUCGCUGCCAGUGAAGAAAUGAACAAAGAAAAUCUGGGCCAGGCAGGCAUCAAAAGAAAUAGUCUUGCGCUCAACCAGAAAGUCUGUAAUCAUUUUAAGGGUA [U2C U38A]	1.07
GCUAACGGUCAUAGGCCAUGGAAACUAGGAGCACCAUUUCGCUGCCAGUGAAGAAAUGAAUAAAGAAAAUCUGGGCCAGGCAGGCAUCAAAAGAAAUAGUCUUGCGCUCAACCAGAAAGUCUGUAAUCAUUUUAAGGGUA [U2C C61U]	1.77
GCUAACGGUCAUAGGCCAUGGAAACUAGGAGCACCAUUUCGCUGCCAGUGAAGAAAUGAACAAAGAAAAUCUGGGCCAGGCAGGCAACAAAAGAAAUAGUCUUGCGCUCAACCAGAAAGUCUGUAAUCAUUUUAAGGGUA [U2C U87A]	0.9
GCUAACGGUCAUAGGCCAUGGAAACUAGGAGCACCAUUUCGCUGCCAGUGAAGAAAUGAACAAAGAAAAUCUGGGCCAGGCAGGCAUCAAAAGAAAUAGUCUUGCGCUCAACCAGAAAGUCUGUAAUCAUUUUAAGUGUA [U2C G137U]	1.25
GCUAACGGUCAUAGGCCAUGGAAACUAGGAGCACCAUUUCGCUGCCAGUGAAGAAAUGAACAAAGAAAAUCUGGGCCAGGCAGGCAUCAAAAGAAAUAGUCUUGCGCUCAACCAGAAAGUCUGUAAUCUUUUUAAGGGUA [U2C A129U]	0.84
GCUAACGGUCAUAGGCCAUGGAAACUAGGAGCACCAUUUCGCUGCCAGUGAAGAAAUGAACAAAGAAAAUCUGGGCCAGGCAGGCAUCAAAAGAAAUAGUCUUGCGCUCAACCAGAAAGUCUGUAAUCGUUUUAAGGGUA [U2C A129G]	0.75
GCUAACGGUCAUAAGCCAUGGAAACUAGGAGCACCAUUUCGCUGCCAGUGAAGAAAUGAACAAAGAAAAUCUGGGCCAGGCAGGCAUCAAAAGAAAUAGUCUUGCGCUCAACCAGAAAGUCUGUAAUCAUUUUAAGGGUA [U2C G14A]	1.39
GCUAACGGUCAUAGGCCAUGGAAACUAGGAGCACCAUUUCGCUGCCAGUGAAGAAAUGAACAAAGAAAAUCGGGGCCAGGCAGGCAUCAAAAGAAAUAGUCUUGCGCUCAACCAGAAAGUCUGUAAUCAUUUUAAGGGUA [U2C U72G]	0.19
GCUAACGGUCAUAGGCCAUGGAAACUAGGAGCACCAUUUCGCUGCCAGUGAAGAAAUGAACAAAGAAAAUCUGUGCCAGGCAGGCAUCAAAAGAAAUAGUCUUGCGCUCAACCAGAAAGUCUGUAAUCAUUUUAAGGGUA [U2C G74U]	0.08
GCUAACGGUCAUAGGCCAUGGAAACUAGGAGCACCAUUUCGCUGCCAGUGAAGAAAUGAACAAAGAAAAUCUGAGCCAGGCAGGCAUCAAAAGAAAUAGUCUUGCGCUCAACCAGAAAGUCUGUAAUCAUUUUAAGGGUA [U2C G74A]	0.18
GCUAACGGUCAUAGGCCAUGGAAACUAGGAGCACCAUUUCGCUGCCAGCGAAGAAAUGAACAAAGAAAAUCUGGGCCAGGCAGGCAUCAAAAGAAAUAGUCUUGCGCUCAACCAGAAAGUCUGUAAUCAUUUUAAGGGUA [U2C U49C]	1.34
GCUAACGGUCAUAGGCCAUGGAAACUAGGAGCACCAUUUCGCUGCCAGAGAAGAAAUGAACAAAGAAAAUCUGGGCCAGGCAGGCAUCAAAAGAAAUAGUCUUGCGCUCAACCAGAAAGUCUGUAAUCAUUUUAAGGGUA [U2C U49A]	1.5

Variant	self-cleavage
GCUAACGGUCAUAGGCCAUGGAAACUAGGAGCACCAUUUCGCUGCCAGUGAAGAAACGAACAAAGAAAAUCUGGGCCAGGCAGGCAUCAAAAGAAAUAGUCUUGCGCUCAACCAGAAAGUCUGUAAUCAUUUUAAGGGUA [U2C U57C]	0.75
GCUAACGGUCAUAGGCCAUGGAAACUAGGAGCACCAUUUCGCUGCCAGUGAAGAAAGGAACAAAGAAAAUCUGGGCCAGGCAGGCAUCAAAAGAAAUAGUCUUGCGCUCAACCAGAAAGUCUGUAAUCAUUUUAAGGGUA [U2C U57G]	0.66
GCUAACGGUCAUAGGCCAUGGAAACUAGGAGCACCAGUUCGCUGCCAGUGAAGAAAUGAACAAAGAAAAUCUGGGCCAGGCAGGCAUCAAAAGAAAUAGUCUUGCGCUCAACCAGAAAGUCUGUAAUCAUUUUAAGGGUA [U2C U37G]	0.75
GCUAACGGUCAUAGGCCAUGGAAACUAGGAGCACCACUUCGCUGCCAGUGAAGAAAUGAACAAAGAAAAUCUGGGCCAGGCAGGCAUCAAAAGAAAUAGUCUUGCGCUCAACCAGAAAGUCUGUAAUCAUUUUAAGGGUA [U2C U37C]	1.26
GCUAACGGUCAUAGGCCAUGGAAACGAGGAGCACCAUUUCGCUGCCAGUGAAGAAAUGAACAAAGAAAAUCUGGGCCAGGCAGGCAUCAAAAGAAAUAGUCUUGCGCUCAACCAGAAAGUCUGUAAUCAUUUUAAGGGUA [U2C U26G]	0.72
GCUAACGGUCAUAGGCCAUGGAAACCAGGAGCACCAUUUCGCUGCCAGUGAAGAAAUGAACAAAGAAAAUCUGGGCCAGGCAGGCAUCAAAAGAAAUAGUCUUGCGCUCAACCAGAAAGUCUGUAAUCAUUUUAAGGGUA [U2C U26C]	1.2
GCUAACGGUCAUAGGCCAUGGAAACUAGGAGCACCAUUUCGCUGCCAGUGAAGAAAUGAACAAAGAAAAGCUGGGCCAGGCAGGCAUCAAAAGAAAUAGUCUUGCGCUCAACCAGAAAGUCUGUAAUCAUUUUAAGGGUA [U2C U70G]	1.51
GCUAACGGUCAUAGGCCAUGGAAACUAGGAGCACCAUUUCGCUGCCAGUGAAGAAAUGAACAAAGAAAAUCUGGGCCAGGCAGGCAUCAAAAGAAAUAGUCUUGCGCUCAACCAGAAAGUCUGUAUUCAUUUUAAGGGUA [U2C A126U]	0.77
GCUAACGGUCAUAGGCCAUGGAAACUAGGAGCACCAUUUCGCUGCCAGUGAAGAAAUGAACAAAGAAAAUCUGGGCCAGGCAGGCAUCAAAAGAAAUAGUCUUGCGCUCAACCAGAAAGUCUGUAAUCAUUUUAAGGGUG [U2C A140G]	0.72
GCUAACGGUCAUAGGCCAUGGAAAUUAGGAGCACCAUUUCGCUGCCAGUGAAGAAAUGAACAAAGAAAAUCUGGGCCAGGCAGGCAUCAAAAGAAAUAGUCUUGCGCUCAACCAGAAAGUCUGUAAUCAUUUUAAGGGUA [U2C C25U]	1.85
GCUAACGGUCAUAGGCCAUGGAAACUAGGAGCACCAUUUCGCUGCCAGUGAAGAAAUGAACAAAGAAAAUCUGGGCCAGGCAGACAUCAAAAGAAAUAGUCUUGCGCUCAACCAGAAAGUCUGUAAUCAUUUUAAGGGUA [U2C G84A]	1.46
GCUAACGGUCAUAGGUCAUGGAAACUAGGAGCACCAUUUCGCUGCCAGUGAAGAAAUGAACAAAGAAAAUCUGGGCCAGGCAGGCAUCAAAAGAAAUAGUCUUGCGCUCAACCAGAAAGUCUGUAAUCAUUUUAAGGGUA [U2C C16U]	0.69
GCUAACGGUCAUAGGCCAUGGAAACUAUGAGCACCAUUUCGCUGCCAGUGAAGAAAUGAACAAAGAAAAUCUGGGCCAGGCAGGCAUCAAAAGAAAUAGUCUUGCGCUCAACCAGAAAGUCUGUAAUCAUUUUAAGGGUA [U2C G28U]	2.17
GCUAACGGUCAUAGGCCAUGGAAACUAGGAGCACCAUUUCGCUGCCAGUGAAGAAAUGAACAAAGAAAAUCUGGGCCAGGCAGGCAUCAAAAGAAAUAGUCUUGCGCUCAAUCAGAAAGUCUGUAAUCAUUUUAAGGGUA [U2C C112U]	0
GCUAACGGUCAUAGGCCAUGGAAACUAGGAGCACCAUUUCGCUGCCAGUGAAGAAAUGAACAAAGAAAAUCUGGGCCAGGCAGGCAUCAAAAGAAAUAGUCUUGCGCUCAACCAGAAAGUCUGUAAUCAUUUUAAGGAUA [U2C G138A]	1.1
GCUAACGGUCAUAGGCCAUGGAAACUAGGAGCACCAUUUCGCUGCCAGUGAAGAAAUGAACAAAGAAAAUCUGGGCCAGGCAGGCAUCAAAAGAAAUAGUCUUGCGCUCAACCAGAAAGUCUGUAAUCAUUUUAUGGGUA [U2C A135U]	0.5
GCUAACGGUCAUAGGCCAUGGAAACUAGGAGCACCAUUUCGCUGCCAGUGAAGAAAUGAACAAAGAAAAUCUGGGCCAGGCAGGCAUCAAAAGAAAUAGUCUUGCGCUCAACCAGAAAGUCUGUAAUAAUUUUAAGGGUA [U2C C128A]	0.85
GCCAACGGUCAUAGGCCAUGGAAACUAGGAGCACCAUUUCGCUGCCAGUGAAGAAAUGAACAAAGAAAAUCUGGGCCAGGCAGGCAUCAAAAGAAAUAGUCUUGCGCUCAACCAGAAAGUCUGUAAUCAUUUUAAGGGUA [U2C U3C]	0.98
GCUAACGGUUAUAGGCCAUGGAAACUAGGAGCACCAUUUCGCUGCCAGUGAAGAAAUGAACAAAGAAAAUCUGGGCCAGGCAGGCAUCAAAAGAAAUAGUCUUGCGCUCAACCAGAAAGUCUGUAAUCAUUUUAAGGGUA [U2C C10U]	1.04
GCUAACGGUCAUAGGCCAUGGAAACUAGGAGCACCAUUUCGCUGCCAGUGAAGAAAUGAACAAAGAAAAUCUGGGACAGGCAGGCAUCAAAAGAAAUAGUCUUGCGCUCAACCAGAAAGUCUGUAAUCAUUUUAAGGGUA [U2C C76A]	0.1
